Measured values as given in US20230381229A1 (ALPINE IMMUNE SCIENCES, INC., published 2023).

B1: variant CD155 IgV-Fc V9L, V11M, P18S, N35S, S54G, Q62K, L79P, L104M, T107M, V115M (Fc fusion)
chain: WPPPGTGDLVMQAPTQVSGFLGDSVTLPCYLQVPSMEVTHVSQLTWARHGESGGMAVFHQTKGPSYSESKRLEFVAARPGAELRNASLRMFGLRVEDEGNYTCMFVMFPQGSRSMDIWLRVLGSGGGGSEPKSSDKTHTCPPCPAPEAEGAPSVFLFPPKPKDTLMISRTPEVTCVVVDVSHEDPEVKFNWYVDGVEVHNAKTKPREEQYNSTYRVVSVLTVLHQDWLNGKEYKCKVSNKALPAPIEKTISKAKGQPREPQVYTLPPSRDELTKNQVSLTCLVKGFYPSDIAVEWESNGQPENNYKTTPPVLDSDGSFFLYSKLTVDKSRWQQGNVFSCSVMHEALHNHYTQKSLSLSPGK
B2: Full length ECD of PD-L2 (ligand)
chain: LFTVTVPKELYIIEHGSNVTLECNFDTGSHVNLGAITASLQKVENDTSPHRERATLLEEQLPLGKASFHIPQVQVRDEGQYQCIIIYGVAWDYKYLTLKVKASYRKINTHILKVPETDEVELTCQATGYPLAEVSWPNVSVPANTSHSRTPEGLYQVTSVLRLKPPPGRNFSCVFWNTHVRELTLASIDLQSQMEPRTHPT

Key:
human TIGIT = biological target: T1, human TIGIT (human); experiment: flow cytometry, transfected HEK293 cells
T1 chain: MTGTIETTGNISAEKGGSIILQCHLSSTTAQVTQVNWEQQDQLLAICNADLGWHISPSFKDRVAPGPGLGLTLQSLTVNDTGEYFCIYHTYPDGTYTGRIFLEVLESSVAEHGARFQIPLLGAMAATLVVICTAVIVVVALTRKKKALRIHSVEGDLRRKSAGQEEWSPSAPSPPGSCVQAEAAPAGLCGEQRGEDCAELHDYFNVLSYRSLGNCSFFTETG

PD-1 = PD-1 (human); experiment: cell-based or functional assay
PD-1 (human), sequence (chain, as listed by the source): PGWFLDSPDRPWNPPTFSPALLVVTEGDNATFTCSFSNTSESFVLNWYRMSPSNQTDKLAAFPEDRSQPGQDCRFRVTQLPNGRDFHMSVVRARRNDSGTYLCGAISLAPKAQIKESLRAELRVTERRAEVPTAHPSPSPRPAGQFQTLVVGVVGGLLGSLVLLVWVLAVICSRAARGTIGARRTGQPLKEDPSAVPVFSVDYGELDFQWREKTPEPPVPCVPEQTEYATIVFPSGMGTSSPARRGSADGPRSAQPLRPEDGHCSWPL

| Binder | MFI at 25 nM (human TIGIT) | IFN gamma levels pg/ml (MLR) (PD-1) [pg/mL] |
| --- | --- | --- |
| B1 | 3000 |  |
| B2 |  | 1170 |
